Data from US20200207850A1 (MacroGenics, published 2020).
Like-named read-outs stand apart in the source and are kept apart here.

B1: 5T4 mAb 2/CD3 mAb 2/CD8 mAb 1 Tri-Specific Binding Molecule (other)
chain 1: DVLMTQTPLSLPVSLGDQASISCRSSQSIVYSNGNTYLEWYLQKPGQSPKLLIYKVSNRFSGVPDRFSGSGSGTDFTLKISRVEAEDLGVYYCFQGSHVPFTFGSGTKLEIKGGGSGGGGEVQLVESGGGLVQPGGSLRLSCAASGFTFSTYAMNWVRQAPGKGLEWVGRIRSKYNNYATYYADSVKGRFTISRDDSKNSLYLQMNSLKTEDTAVYYCVRHGNFGNSYVSWFAYWGQGTLVTVSSGGCGGGEVAALEKEVAALEKEVAALEKEVAALEKGGGDKTHTCPPCPAPEAAGGPSVFLFPPKPKDTLMISRTPEVTCVVVDVSHEDPEVKFNWYVDGVEVHNAKTKPREEQYNSTYRVVSVLTVLHQDWLNGKEYKCKVSNKALPAPIEKTISKAKGQPREPQVYTLPPSREEMTKNQVSLWCLVKGFYPSDIAVEWESNGQPENNYKTTPPVLDSDGSFFLYSKLTVDKSRWQQGNVFSCSVMHEALHNHYTQKSLSLSPGK
chain 2: QAVVTQEPSLTVSPGGTVTLTCRSSTGAVTTSNYANWVQQKPGQAPRGLIGGTNKRAPWTPARFSGSLLGGKAALTITGAQAEDEADYYCALWYSNLWVFGGGTKLTVLGGGGSGGGGQVQLQQPGAELVKPGASVKMSCKASGYTFTSYWITWVKQRPGQGLEWIGDIYPGSGRANYNEKFKSKATLTVDTSSSTAYMQLSSLTSEDSAVYNCARYGPLFTTVVDPNSYAMDYWGQGTSVTVSSGGCGGGKVAALKEKVAALKEKVAALKEKVAALKE
heavy: EVQLQQSGAELVKPGASVKLSCTASGFNIKDTYIHFVRQRPEQGLEWIGRIDPANDNTLYASKFQGKATITADTSSNTAYMHLCSLTSGDTAVYYCGRGYGYYVFDHWGQGTTLTVSSASTKGPSVFPLAPSSKSTSGGTAALGCLVKDYFPEPVTVSWNSGALTSGVHTFPAVLQSSGLYSLSSVVTVPSSSLGTQTYICNVNHKPSNTKVDKRVEPKSCDKTHTCPPCPAPEAAGGPSVFLFPPKPKDTLMISRTPEVTCVVVDVSHEDPEVKFNWYVDGVEVHNAKTKPREEQYNSTYRVVSVLTVLHQDWLNGKEYKCKVSNKALPAPIEKTISKAKGQPREPQVYTLPPSREEMTKNQVSLSCAVKGFYPSDIAVEWESNGQPENNYKTTPPVLDSDGSFFLVSKLTVDKSRWQQGNVFSCSVMHEALHNRYTQKSLSLSPGK
light: DVQINQSPSFLAASPGETITINCRTSRSISQYLAWYQEKPGKTNKLLIYSGSTLQSGIPSRFSGSGSGTDFTLTISGLEPEDFAMYYCQQHNENPLTFGAGTKLELRRTVAAPSVFIFPPSDEQLKSGTASVVCLLNNFYPREAKVQWKVDNALQSGNSQESVTEQDSKDSTYSLSSTLTLSKADYEKHKVYACEVTHQGLSSPVTKSFNRGEC
B2: 5T4 mAb 2/CD3 mAb 2/CD8 mAb 2 Tri-Specific Binding Molecule (other)
chain 1: B1 chain 1
chain 2: B1 chain 2
heavy: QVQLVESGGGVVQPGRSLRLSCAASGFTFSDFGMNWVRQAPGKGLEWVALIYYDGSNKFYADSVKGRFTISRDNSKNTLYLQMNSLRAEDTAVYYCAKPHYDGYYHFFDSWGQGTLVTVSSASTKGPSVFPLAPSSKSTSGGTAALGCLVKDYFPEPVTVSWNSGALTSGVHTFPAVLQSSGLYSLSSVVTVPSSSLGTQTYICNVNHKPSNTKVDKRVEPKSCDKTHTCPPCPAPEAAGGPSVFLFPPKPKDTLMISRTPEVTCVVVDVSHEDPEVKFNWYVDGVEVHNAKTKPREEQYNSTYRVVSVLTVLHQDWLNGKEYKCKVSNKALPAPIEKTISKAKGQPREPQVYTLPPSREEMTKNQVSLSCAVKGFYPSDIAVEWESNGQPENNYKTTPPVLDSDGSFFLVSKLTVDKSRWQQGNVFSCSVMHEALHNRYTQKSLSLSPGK
light: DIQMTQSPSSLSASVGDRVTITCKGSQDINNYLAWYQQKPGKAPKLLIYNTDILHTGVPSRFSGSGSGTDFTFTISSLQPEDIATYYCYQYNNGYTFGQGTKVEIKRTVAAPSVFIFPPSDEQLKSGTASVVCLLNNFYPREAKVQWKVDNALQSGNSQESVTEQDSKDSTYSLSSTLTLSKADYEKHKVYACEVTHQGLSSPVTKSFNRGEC
B3: HIV mAb 2/CD3 mAb 2/CD8 mAb 1 Tri-Specific Binding Molecule (other)
chain 1: QSALTQPPSASGSPGQSVTISCTGTSSDVGGYNYVSWYQHHPGKAPKLIISEVNNRPSGVPDRFSGSKSGNTASLTVSGLQAEDEAEYYCSSYTDIHNFVFGGGTKLTVLGGGSGGGGEVQLVESGGGLVQPGGSLRLSCAASGFTFSTYAMNWVRQAPGKGLEWVGRIRSKYNNYATYYADSVKGRFTISRDDSKNSLYLQMNSLKTEDTAVYYCVRHGNFGNSYVSWFAYWGQGTLVTVSSASTKGEVAACEKEVAALEKEVAALEKEVAALEKGGGDKTHTCPPCPAPEAAGGPSVFLFPPKPKDTLMISRTPEVTCVVVDVSHEDPEVKFNWYVDGVEVHNAKTKPREEQYNSTYRVVSVLTVLHQDWLNGKEYKCKVSNKALPAPIEKTISKAKGQPREPQVYTLPPSREEMTKNQVSLWCLVKGFYPSDIAVEWESNGQPENNYKTTPPVLDSDGSFFLYSKLTVDKSRWQQGNVFSCSVMHEALHNHYTQKSLSLSPGK
chain 2: QAVVTQEPSLTVSPGGTVTLTCRSSTGAVTTSNYANWVQQKPGQAPRGLIGGTNKRAPWTPARFSGSLLGGKAALTITGAQAEDEADYYCALWYSNLWVFGGGTKLTVLGGGGSGGGGQVQLQESGPGLVKPSQTLSLSCTVSGGSSSSGAHYWSWIRQYPGKGLEWIGYIHYSGNTYYNPSLKSRITISQHTSENQFSLKLNSVTVADTAVYYCARGTRLRTLRNAFDIWGQGTLVTVSSASTKGKVAACKEKVAALKEKVAALKEKVAALKE
heavy: EVQLQQSGAELVKPGASVKLSCTASGFNIKDTYIHFVRQRPEQGLEWIGRIDPANDNTLYASKFQGKATITADTSSNTAYMHLCSLTSGDTAVYYCGRGYGYYVFDHWGQGTTLTVSSASTKGPSVFPLAPSSKSTSGGTAALGCLVKDYFPEPVTVSWNSGALTSGVHTFPAVLQSSGLYSLSSVVTVPSSSLGTQTYICNVNHKPSNTKVDKRVEPKSCDKTHTCPPCPAPEAAGGPSVFLFPPKPKDTLMISRTPEVTCVVVDVSHEDPEVKFNWYVDGVEVHNAKTKPREEQYNSTYRVVSVLTVLHQDWLNGKEYKCKVSNKALPAPIEKTISKAKGQPREPQVYTLPPSREEMTKNQVSLSCAVKGFYPSDIAVEWESNGQPENNYKTTPPVLDSDGSFFLVSKLTVDKSRWQQGNVFSCSVMHEALHNRYTQKSLSLSPG
light: B1 light
B4: HIV mAb 1/CD3 mAb 2/CD8 mAb 1 Tri-Specific Binding Molecule (other)
chain 1: DIVMTQSPDSLAVSPGERATIHCKSSQTLLYSSNNRHSIAWYQQRPGQPPKLLLYWASMRLSGVPDRFSGSGSGTDFTLTINNLQAEDVAIYYCHQYSSHPPTFGHGTRVEIKGGGSGGGGEVQLVESGGGLVQPGGSLRLSCAASGFTFSTYAMNWVRQAPGKGLEWVGRIRSKYNNYATYYADSVKGRFTISRDDSKNSLYLQMNSLKTEDTAVYYCVRHGNFGNSYVSWFAYWGQGTLVTVSSASTKGEVAACEKEVAALEKEVAALEKEVAALEKGGGDKTHTCPPCPAPEAAGGPSVFLFPPKPKDTLMISRTPEVTCVVVDVSHEDPEVKFNWYVDGVEVHNAKTKPREEQYNSTYRVVSVLTVLHQDWLNGKEYKCKVSNKALPAPIEKTISKAKGQPREPQVYTLPPSREEMTKNQVSLWCLVKGFYPSDIAVEWESNGQPENNYKTTPPVLDSDGSFFLYSKLTVDKSRWQQGNVFSCSVMHEALHNHYTQKSLSLSPGK
chain 2: QAVVTQEPSLTVSPGGTVTLTCRSSTGAVTTSNYANWVQQKPGQAPRGLIGGTNKRAPWTPARFSGSLLGGKAALTITGAQAEDEADYYCALWYSNLWVFGGGTKLTVLGGGGSGGGGQVQLVQSGGGVFKPGGSLRLSCEASGFTFTEYYMTWVRQAPGKGLEWLAYISKNGEYSKYSPSSNGRFTISRDNAKNSVFLQLDRLSADDTAVYYCARADGLTYFSELLQYIFDLWGQGARVTVSSASTKGKVAACKEKVAALKEKVAALKEKVAALKE
heavy: B3 heavy
light: B1 light
B5: DART molecule having the CD3 mAb 2 Fast Binding Domain (bispecific antibody, V domains shown)
VH: EVQLVESGGGLVQPGGSLRLSCAASGFTFSTYAMNWVRQAPGKGLEWVGRIRSKYNNYATYYADSVKGRFTISRDDSKNSLYLQMNSLKTEDTAVYYCVRHKNFGNSYVTWFAYWGQGTLVTVSS
VL: QAVVTQEPSLTVSPGGTVTLTCRSSTGAVTTSNYANWVQQKPGQAPRGLIGGTNKRAPWTPARFSGSLLGGKAALTITGAQAEDEADYYCALWYSNLWVFGGGTKLTVLG
notes: also called anti-human CD3 mAb 2 Fast

Legend:
[1] = target: T1, 5T4 on JIMT-1 target cells (UniProt Q13641 32-420, limits assumed); experiment: cell-based or functional assay
T1 sequence (looked up): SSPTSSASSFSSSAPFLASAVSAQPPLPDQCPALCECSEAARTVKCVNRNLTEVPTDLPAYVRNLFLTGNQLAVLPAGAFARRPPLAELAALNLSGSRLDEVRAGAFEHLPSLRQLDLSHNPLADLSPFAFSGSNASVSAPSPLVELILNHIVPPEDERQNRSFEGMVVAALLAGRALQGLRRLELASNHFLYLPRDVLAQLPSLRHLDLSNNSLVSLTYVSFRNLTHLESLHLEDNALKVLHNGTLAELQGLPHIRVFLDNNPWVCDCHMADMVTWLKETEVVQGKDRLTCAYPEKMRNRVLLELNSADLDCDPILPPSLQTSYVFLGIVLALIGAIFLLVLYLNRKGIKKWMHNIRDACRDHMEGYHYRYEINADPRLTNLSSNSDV

[2] = target: T2, CD8 on human T cells (PBMC) (human, UniProt P01732 22-235); experiment: flow cytometry on human PBMC, CD5+/CD4- gated cells (bear CD8 and CD3), detection anti-human Fc (MFI)
T2 construct: whole, on cells; The CD8+ (CD5+ CD4-) cells also carry CD3; also called CD5+ CD4- gated PBMC; CD8+ T cells

[3] = target: HIV env on Jurkat 522 FY cells (HIV); experiment: cell-based or functional assay
[4] = target: HIV env on Jurkat 522 FY cells (HIV); experiment: cell-based or functional assay; remark: listed apart in the source
[5] = target: T2, CD8 on human T cells (PBMC); experiment: flow cytometry on human PBMC, CD5+/CD4- gated cells (bear CD8 and CD3), detection anti-human Fc (MFI); remark: listed apart in the source
Procedure: Human blood was lysed with ACK lysing buffer, washed 2× with PBS and re-suspended in FACS buffer contained 10% Human AB serum and incubated at room temperature for 20 minutes. Thereafter, the cells were pelleted by centrifugation and re-suspended (4×10⁶ cells/mL) in FACS buffer. 50 μL of serial titrated Tri-Specific Binding Molecules were added into wells of a 96-well deep plate. 50 μL of the cells (4×10⁶ cells/mL) well-mixed cells in FACS buffer containing 0.01% sodium azide were then added into corresponding wells and mixed thoroughly using a pipette. The plate was incubated in the dark for about 45 minutes at 2-8° C. At the end of incubation, the cells were washed twice by adding 300 μL of FACS buffer to each well, the plate was centrifuged at 1,200 rpm for 5 minutes, and the supernatant was discarded. The cell pellets were re-suspended in 100 μL mixture of goat anti-Human IgG Fcγ-PE, CD5-APC and CD4-PerCP5.5 prepared in FACS buffer containing 0.01% sodium azide, and the cells were incubated in the dark for about 45 minutes at 2-8° C. At the end of the incubation, the cells were washed, re-suspended with FACS buffer, and analyzed with a BD Caliber flow cytometer.

human CD3 = human CD3 (human, UniProt P07766 23-126); experiment: binding kinetics sensorgram (RU against time), panel labelled hCD3
Chain of human CD3 (P07766 23-126): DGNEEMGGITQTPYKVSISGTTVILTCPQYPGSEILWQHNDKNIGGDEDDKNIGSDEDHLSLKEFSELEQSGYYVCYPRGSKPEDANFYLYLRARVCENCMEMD

T2 sequence (P01732 22-235): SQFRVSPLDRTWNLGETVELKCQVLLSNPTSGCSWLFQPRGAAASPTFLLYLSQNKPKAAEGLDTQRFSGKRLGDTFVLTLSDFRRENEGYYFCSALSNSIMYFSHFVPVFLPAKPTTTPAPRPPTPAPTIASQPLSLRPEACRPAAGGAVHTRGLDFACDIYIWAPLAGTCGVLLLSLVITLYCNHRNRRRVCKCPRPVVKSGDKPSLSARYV

Row | Binder | EC50 (nM) of killing, CD4+ effector cells, JIMT1-luc target cells, E:T 5:1 [1] | EC50 (nM) of killing, CD8+ effector cells, JIMT1-luc target cells, E:T 5:1 [1] | EC50 (nM) of killing, PanT effector cells, JIMT1-luc target cells, E:T 5:1 [1] | EC50 (read off the curve) [2] | EC50, nM, % cytotoxicity (LDH), Jurkat Cells 522FY, CD4 effector cells [3] | EC50, nM, % cytotoxicity (LDH), Jurkat Cells 522FY, CD8 effector cells [3] | EC50, nM, % cytotoxicity (LDH), Jurkat Cells 522FY, Pan T effector cells [3] | EC50 nM, % cytotoxicity (LDH), Jurkat Cells 522FY, E/T = 5:1 [4] | EC50 nM, % cytotoxicity (LDH), Jurkat Cells 522FY, E/T = 10:1 [4] | EC50 (read off the curve) [5] | Kd (human CD3)
1 | B1 | 0.0435 nM | 0.0013 nM | 0.002 nM | ~2000 pM | – | – | – | – | – | – | –
2 | B2 | 0.0336 nM | 0.0015 nM | 0.0018 nM | ~2000 pM | – | – | – | – | – | – | –
3 | B3 | – | – | – | – | 0.45 nM | 0.0004 nM | 0.0015 nM | 0.00032 nM | 0.00026 nM | ~600 pM | –
4 | B4 | – | – | – | – | 0.36 nM | 0.00781 nM | 0.044 nM | 0.00019 nM | 0.00029 nM | ~800 pM | –
5 | B5 | – | – | – | – | – | – | – | – | – | – | 13900 pM
